Results taken from publication PMC10870365, “Dissection of protein and RNA regions required for SPEN binding to XIST A-repeat RNA”.
Where a chain is given by its changes, count along the chain named.

Columns and labels:
[1] = target: T1, SPEN RRM 2-4 (Homo sapiens) (UniProt Q96T58); experiment: EMSA; conditions: EMSA: 20 mM Tris-HCl pH 7.5, 150 mM KCl, 5 mM MgCl2, 10% glycerol, room temperature 30 min, 2 nM each labeled RNA (multiplexed), 4.5% TBE native gel
T1 sequence: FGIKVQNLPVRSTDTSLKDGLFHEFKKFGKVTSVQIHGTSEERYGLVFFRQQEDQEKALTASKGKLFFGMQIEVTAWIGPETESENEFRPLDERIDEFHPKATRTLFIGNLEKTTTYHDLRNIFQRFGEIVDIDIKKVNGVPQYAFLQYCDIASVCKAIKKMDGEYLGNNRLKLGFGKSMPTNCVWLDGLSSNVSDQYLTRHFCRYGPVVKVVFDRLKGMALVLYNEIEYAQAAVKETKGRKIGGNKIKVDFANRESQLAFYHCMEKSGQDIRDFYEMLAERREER

[2] = target: T2, SPEN RRM 2-4 mut3 F282A;K311A;Y319A;F321A;K353A (Homo sapiens) (UniProt Q96T58); experiment: EMSA; conditions: EMSA: 20 mM Tris-HCl pH 7.5, 150 mM KCl, 5 mM MgCl2, 10% glycerol, room temperature 30 min, 2 nM each labeled RNA (multiplexed), 4.5% TBE native gel
T2 sequence: T1 sequence with F107A, K136A, Y144A, F146A, K178A

[3] = target: T3, SPEN RRM 1-4 (Homo sapiens) (UniProt Q96T58); experiment: EMSA; conditions: EMSA: 20 mM Tris-HCl pH 7.5, 150 mM KCl, 5 mM MgCl2, 10% glycerol, room temperature 30 min, 2 nM each labeled RNA (multiplexed), 4.5% TBE native gel
T3 sequence: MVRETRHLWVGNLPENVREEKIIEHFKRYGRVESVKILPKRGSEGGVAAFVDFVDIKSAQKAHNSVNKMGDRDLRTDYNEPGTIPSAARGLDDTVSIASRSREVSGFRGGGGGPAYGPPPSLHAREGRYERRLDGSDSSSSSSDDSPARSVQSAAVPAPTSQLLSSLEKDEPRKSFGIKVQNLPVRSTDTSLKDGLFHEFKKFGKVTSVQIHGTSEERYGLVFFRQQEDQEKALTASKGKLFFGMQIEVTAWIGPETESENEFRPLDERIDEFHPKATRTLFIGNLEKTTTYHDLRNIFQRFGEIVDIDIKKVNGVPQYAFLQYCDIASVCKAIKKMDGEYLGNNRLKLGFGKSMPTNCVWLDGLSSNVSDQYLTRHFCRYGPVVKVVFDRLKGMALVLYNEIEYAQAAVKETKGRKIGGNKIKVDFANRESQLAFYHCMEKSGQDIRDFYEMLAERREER

[4] = target: T4, SPEN RRM 1-4 (Homo sapiens, UniProt Q96T58); experiment: EMSA; Hill 1; EMSA: 20 mM Tris-HCl pH 7.5, 150 mM KCl, 5 mM MgCl2, 10% glycerol, room temperature 30 min, 2 nM each labeled RNA (multiplexed), 4.5% TBE native gel; conditions: protein: recombinant, tags: 6xHis-MBP-TEV at N-terminus, removed by TEV cleavage
T4 sequence: T3 sequence

[5] = target: T5, SPEN RRM 2-4 (Homo sapiens, UniProt Q96T58); experiment: EMSA; Hill 10; EMSA: 20 mM Tris-HCl pH 7.5, 150 mM KCl, 5 mM MgCl2, 10% glycerol, room temperature 30 min, 2 nM each labeled RNA (multiplexed), 4.5% TBE native gel; conditions: protein: recombinant; tags: 6xHis-MBP-TEV at N-terminus, removed by TEV cleavage; label: internal Cy3-, Cy5- or fluorescein-UTP
T5 sequence: T1 sequence

[6] = target: T6, SPEN RRM 2-4 mut3 (Homo sapiens, UniProt Q96T58, F282A;K311A;Y319A;F321A;K353A); experiment: EMSA; Hill 2; text: loss of binding (Kd >1000 nM); EMSA: 20 mM Tris-HCl pH 7.5, 150 mM KCl, 5 mM MgCl2, 10% glycerol, room temperature 30 min, 2 nM each labeled RNA (multiplexed), 4.5% TBE native gel; conditions: protein: recombinant; tags: 6xHis-MBP-TEV at N-terminus, removed by TEV cleavage; label: internal Cy3-, Cy5- or fluorescein-UTP
T6 sequence: T1 sequence with F107A, K136A, Y144A, F146A, K178A

[7] = target: T4, SPEN RRM 1-4; experiment: EMSA; Hill 2; EMSA: 20 mM Tris-HCl pH 7.5, 150 mM KCl, 5 mM MgCl2, 10% glycerol, room temperature 30 min, 2 nM each labeled RNA (multiplexed), 4.5% TBE native gel; conditions: protein: recombinant; tags: 6xHis-MBP-TEV at N-terminus, removed by TEV cleavage; label: internal fluorophore-UTP
[8] = target: T4, SPEN RRM 1-4; experiment: EMSA; Hill 5; EMSA: 20 mM Tris-HCl pH 7.5, 150 mM KCl, 5 mM MgCl2, 10% glycerol, room temperature 30 min, 2 nM each labeled RNA (multiplexed), 4.5% TBE native gel; conditions: protein: recombinant; tags: 6xHis-MBP-TEV at N-terminus, removed by TEV cleavage; label: internal fluorophore-UTP
[9] = label: internal fluorophore-UTP

With “GUACCAGGUAUGUGAUGACAUCAGCCGACGCCUGGCACUGCUGCAGGAACAGUGGGCUGGAGGAAAGUUGUCAAUACCUGUAAAGAAGAGAAUGGCUCUACUGGUGCAAGAGCUUUCAAGCCACCGGUGGGACGCAGCAGAUGACAUCCACCGCUCCCUCAUGGUUGACCAUGUGACUGAGGUCAGUCAGUGGAUGGUAGGAGUUAAAAGAUUAAUUGCAGAAAAGAGGAGUCUGUUUUCAGAGGAGGCAGCCAAUGAAGAGAAAUCUGCAGCCACAGCUGAGAAGAACCAUACCAUACCAGGCUUCCAGCAGGCUUCAUAAUCCUCGGUUCCCCAGACUCACCGGACACCAUCUCCU [SRA]” the Kd [1] was 300 nM, the Kd [2] was 950 nM and the Kd [3] was 100 nM.

In the case of “GCGAGGAGCCUUUCAUCCGAAGGCGGGACGAUGCCGGAUAAUCGGCAGCCGAGGAACCGGCAGCCGAGGAUCCGCUCCGGGAACGAGCCUCGUUCCGCGCCCGCCAUGGAACCGGAUGGUCGCGGUGCCUGGGCCCACAGUCGCGCCGCGCUCGACCGCCUGGAGAAGCUGCUGCGCUGCUCGCGUUGUACUAACAUUCUGAGAGAGCCUGUGUGUUUAGGAGGAA [BARD1 mRNA fragment]”, the Kd [3] is reported as 210 nM.

“GGGCUGCGGAUACCUGGUUUUAUUAUUUUUUCUUUGCCCAACGGGGCCGUGGAUACCUGCCUUUUAAUUCUUUUUUAUUCGCCCAUCGGGGCCGCGGAUACCUGCUUUUUAUUUUUUUUUCCUUAGCCCAUCGGGGUAUCGGAUACCUGCUGAUUCCCUUCCCCUCUGAACCCCCAACACUCUGGCCCAUCGGGGUGACGGAUAUCUGCUUUUUAAAAAUUUUCUUUUUUUGGCCCAUCGGGGCUUCGGAUACCUGCUUUUUUUUUUUUUAUUUUUCCUUGCCCAUCGGGGCCUCGGAUACCUGCUUUAAUUUUUGUUUUUCUGGCCCAUCGGGGCCGCGGAUACCUGCUUUGAUUUUUUUUUUUCAUCGCCCAUCGGUGCU [XIST A-full]” showed a Kd [1] of 120 nM, a Kd [2] of 230 nM and a Kd [3] of 100 nM.

B1: XIST A6-8 (trimer) (structured_RNA)
RNA: GGCCCAUCGGGGCUUCGGAUACCUGCUUUUUUUUUUUUUAUUUUUCCUUGCCCAUCGGGGCCUCGGAUACCUGCUUUAAUUUUUGUUUUUCUGGCCCAUCGGGGCCGCGGAUACCUGCUU
B1 gave a Kd [4, 9] of 288 ± 39 nM.

B2: BARD1 mRNA fragment (structured_RNA)
RNA: GCGAGGAGCCUUUCAUCCGAAGGCGGGACGAUGCCGGAUAAUCGGCAGCCGAGGAACCGGCAGCCGAGGAUCCGCUCCGGGAACGAGCCUCGUUCCGCGCCCGCCAUGGAACCGGAUGGUCGCGGUGCCUGGGCCCACAGUCGCGCCGCGCUCGACCGCCUGGAGAAGCUGCUGCGCUGCUCGCGUUGUACUAACAUUCUGAGAGAGCCUGUGUGUUUAGGAGGAA
Work on B2 yielded a Kd [5] of 550 ± 30 nM and a Kd [6] of 2300 ± 500 nM.

B3: XIST A4-6 (structured_RNA)
RNA: GCCGCGGAUACCUGCUUUUUAUUUUUUUUUCCUUAGCCCAUCGGGGUAUCGGAUACCUGCUGAUUCCCUUCCCCUCUGAACCCCCAACACUCUGGCCCAUCGGGGUGACGGAUAUCUGCUUUUUAAAAAUUUUCUUUUUUUGGCCCAUCGGGGCUUCGGAUACCUGCUUUUUUUUUUUUUAUUUUUCCUUGCCCAUCGGGG
With B3 the Kd [7] was 132 ± 10 nM.

B4: tRNA-Cys (structured_RNA)
RNA: GGGGGUAUAGCUCAGGGGUAGAGCAUUUGACUGCAAAUCAAGAGGUCCCUGAUUCAAAUCCAGGUGCCCCCUCCAAGCUUG
With B4 the Kd [4, 9] was 245 ± 78 nM.

B5: XIST A6-9 (structured_RNA)
RNA: GGCUUCGGAUACCUGCUUUUUUUUUUUUUAUUUUUCCUUGCCCAUCGGGGCCUCGGAUACCUGCUUUAAUUUUUGUUUUUCUGGCCCAUCGGGGCCGCGGAUACCUGCUUUGAUUUUUUUUUUUCAUCGCCCAUCGGUGCU
Molecule B5 has a Kd [7] of 185 ± 9 nM.

B6: XIST A7-8 (dimer) (structured_RNA)
RNA: GUUGCCCAUCGGGGCCUCGGAUACCUGCUUUAAUUUUUGUUUUUCUGGCCCAUCGGGGCCGCGGAUACCUGCUU
B6 gave a Kd [4, 9] of 248 ± 68 nM.

B7: XIST A5-8 (structured_RNA)
RNA: GCCCAUCGGGGUGACGGAUAUCUGCUUUUUAAAAAUUUUCUUUUUUUGGCCCAUCGGGGCUUCGGAUACCUGCUUUUUUUUUUUUUAUUUUUCCUUGCCCAUCGGGGCCUCGGAUACCUGCUUUAAUUUUUGUUUUUCUGGCCCAUCGGGGCCGCGGAUACCUGCUU
B7 was tested, and the Kd [8] was 127 ± 4 nM.

B8: XIST A1-4 (structured_RNA)
RNA: GCUGCGGAUACCUGGUUUUAUUAUUUUUUCUUUGCCCAACGGGGCCGUGGAUACCUGCCUUUUAAUUCUUUUUUAUUCGCCCAUCGGGGCCGCGGAUACCUGCUUUUUAUUUUUUUUUCCUUAGCCCAUCGGGGUAUCGGAUACCUGCUGAUUCCCUUCCCCUCUGAACCCCCAACACUCUGGCCCAUCG
With B8 the Kd [4, 9] was 71 ± 4 nM.

B9: XIST A6-9+ (structured_RNA)
RNA: GGCUUCGGAUACCUGCUUUUUUUUUUUUUAUUUUUCCUUGCCCAUCGGGGCCUCGGAUACCUGCUUUAAUUUUUGUUUUUCUGGCCCAUCGGGGCCGCGGAUACCUGCUUUGAUUUUUUUUUUUCAUCGCCCAUCGGUGCUUUUUAUGGAUGAAAAAAUGUUGGUUUUGUGGGUUGUUGCACUCUCUGGAAUAUCUACACUUUUUUUUGCUGCUGAUCAUUUGGUGG
In the case of B9, the Kd ([4]; label: internal fluorophore-UTP (EMSA)) is reported as 48 ± 5 nM.
